Measurements as given in US20230192842A1 (published 2023).

Columns and labels:
Experiment in all cases: cell-based or functional assay
[1] = biological target: human CLDN4 with C-terminal monomeric GFP tag on RKO-KO cells (human) (UniProt O14493)
[2] = biological target: human CLDN3 I45A mutant on RKO KO cells (human) (UniProt O15551)
[3] = biological target: human CLDN3 K156A mutant on RKO KO cells (human) (UniProt O15551)
[4] = biological target: human CLDN3 I39A mutant on RKO KO cells (human) (UniProt O15551)
[5] = biological target: human CLDN3 N148A mutant on RKO KO cells (human) (UniProt O15551)
[6] = biological target: human CLDN3 F34A mutant on RKO KO cells (human) (UniProt O15551)
[7] = biological target: human CLDN3 with C-terminal monomeric GFP tag on RKO-KO cells (human) (UniProt O15551)
[8] = biological target: human CLDN9 with C-terminal monomeric GFP tag on RKO-KO cells (human) (UniProt O95484)
[9] = biological target: human CLDN3 Q43A mutant on RKO KO cells (human) (UniProt O15551)
[10] = biological target: human CLDN3 P149A mutant on RKO KO cells (human) (UniProt O15551)
[11] = biological target: human CLDN3 V150A mutant on RKO KO cells (human) (UniProt O15551)
[12] = biological target: human CLDN3 S42A mutant on RKO KO cells (human) (UniProt O15551)
[13] = biological target: human CLDN3 P152A mutant on RKO KO cells (human) (UniProt O15551)
[14] = biological target: T1, human CLDN6 with C-terminal monomeric GFP tag on RKO-KO cells (human) (UniProt P56747)
T1 sequence (looked up): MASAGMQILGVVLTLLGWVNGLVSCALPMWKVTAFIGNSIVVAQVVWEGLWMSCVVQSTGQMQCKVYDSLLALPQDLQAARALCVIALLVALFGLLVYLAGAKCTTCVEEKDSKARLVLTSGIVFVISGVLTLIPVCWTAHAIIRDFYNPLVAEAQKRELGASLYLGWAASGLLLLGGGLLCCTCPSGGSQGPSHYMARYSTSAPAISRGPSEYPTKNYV

[15] = biological target: T2, human CLDN3 N38A mutant on RKO KO cells (human, UniProt O15551 1-220)
T2 construct: Single-point alanine mutant, monoclonal RKO KO line with GFP
T2 chain: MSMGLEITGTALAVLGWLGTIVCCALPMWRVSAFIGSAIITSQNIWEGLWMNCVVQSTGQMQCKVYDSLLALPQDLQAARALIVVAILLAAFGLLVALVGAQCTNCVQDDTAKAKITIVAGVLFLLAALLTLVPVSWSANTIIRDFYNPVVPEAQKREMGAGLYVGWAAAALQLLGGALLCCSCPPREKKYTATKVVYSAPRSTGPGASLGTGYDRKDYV

[16] = biological target: human CLDN3 R157A mutant on RKO KO cells (human) (UniProt O15551)
[17] = biological target: human CLDN3 Q155A mutant on RKO KO cells (human) (UniProt O15551)
[18] = biological target: mouse CLDN3 with C-terminal monomeric GFP tag on RKO-KO cells (mouse) (UniProt Q9Z0G9)
[19] = biological target: T3, human CLDN3 E153A mutant on RKO KO cells (human, UniProt O15551 1-220)
T3 construct: Single-point alanine mutant, monoclonal RKO KO line with GFP
T3 chain: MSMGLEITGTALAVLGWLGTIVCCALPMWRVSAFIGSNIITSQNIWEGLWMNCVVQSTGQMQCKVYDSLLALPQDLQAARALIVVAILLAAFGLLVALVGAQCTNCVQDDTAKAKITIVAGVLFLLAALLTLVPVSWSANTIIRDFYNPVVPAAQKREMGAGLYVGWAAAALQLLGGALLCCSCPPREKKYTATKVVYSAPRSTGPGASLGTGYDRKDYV

human CLDN9 with C-terminal monomeric GFP tag on RKO-KO cells (human), sequence (O95484 whole entry): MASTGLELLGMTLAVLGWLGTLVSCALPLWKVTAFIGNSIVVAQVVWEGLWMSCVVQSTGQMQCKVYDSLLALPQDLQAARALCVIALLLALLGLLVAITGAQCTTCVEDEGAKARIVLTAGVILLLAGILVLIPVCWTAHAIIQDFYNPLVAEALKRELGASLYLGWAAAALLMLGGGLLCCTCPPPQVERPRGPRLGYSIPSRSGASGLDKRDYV
human CLDN4 with C-terminal monomeric GFP tag on RKO-KO cells (human), sequence (O14493 whole entry): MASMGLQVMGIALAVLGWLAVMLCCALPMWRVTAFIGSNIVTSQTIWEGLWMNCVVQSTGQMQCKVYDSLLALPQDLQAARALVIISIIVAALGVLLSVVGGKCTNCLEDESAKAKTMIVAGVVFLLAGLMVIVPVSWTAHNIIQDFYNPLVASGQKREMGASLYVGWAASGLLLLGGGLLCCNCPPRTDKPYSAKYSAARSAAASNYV
mouse CLDN3 with C-terminal monomeric GFP tag on RKO-KO cells (mouse), sequence (Q9Z0G9 whole entry): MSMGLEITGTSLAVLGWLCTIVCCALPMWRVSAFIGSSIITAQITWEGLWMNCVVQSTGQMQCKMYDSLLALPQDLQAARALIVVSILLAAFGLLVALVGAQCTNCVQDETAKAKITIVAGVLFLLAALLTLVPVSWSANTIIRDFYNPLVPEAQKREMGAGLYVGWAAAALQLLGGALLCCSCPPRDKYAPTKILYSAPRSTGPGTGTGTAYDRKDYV

B1: 906-009_LNGFR anti-claudin-3 chimeric antigen receptor (scFv orientation L-H, short hCD8 spacer), on T cells (protein, part only; not given: linker, spacer and signaling domains, not shown: large carriers)
chain, part: DIQMTQSPSSLSASVGDRVTITCKASQDINRYIAWYQQKPGKAPKLLIHYTSTLQPGVPSRFSGSGSGTDFTLTISSLQPEDFATYYCLQYETLYSFGQGTKLEIKQVQLVQSGAEVKKPGSSVKVSCKASGYTFTNYWVHWVRQAPGQGLEWMGRIEPNSSGSQYNEKFKNRVTITADKSTSTAYMELSSLRSEDTAVYYCARGVMVPLDYWGQGTLVTVSS
- % Live Cells at Assay Endpoint (90 hrs, donor 0372470) [1]: 94.7%
- % Live Cells at Assay Endpoint (120 hrs, donor 0372470) [1]: 90.7%
- IFNγ secretion fold change, anti-claudin-3 CAR-T cells vs anti-CD19 CAR-T cells [1]: 25.1 fold
- IFNγ secretion fold change, anti-claudin-3 CAR-T cells vs untransduced T cells [1]: 29.2 fold
- IFNγ as % of IFNγ in CLDN3 WT (24 h co-culture, normalised to untransduced T cells) [2]: 66.1%
- IFNγ as % of IFNγ in CLDN3 WT (24 h co-culture, normalised to untransduced T cells) [3]: 101%
- IFNγ as % of IFNγ in CLDN3 WT (24 h co-culture, normalised to untransduced T cells) [4]: 71.5%
- IFNγ as % of IFNγ in CLDN3 WT (24 h co-culture, normalised to untransduced T cells) [5]: 104%
- IFNγ as % of IFNγ in CLDN3 WT (24 h co-culture, normalised to untransduced T cells) [6]: 79.7%
- % Live Cells at Assay Endpoint (40 hrs, donor 92024) [7]: 16.3%
- % Live Cells at Assay Endpoint (70 hrs, donor D5) [7]: 0%
- % Live Cells at Assay Endpoint (90 hrs, donor 0372470; RKO KO hCLDN3 L14) [7]: -6%
- % Live Cells at Assay Endpoint (96 hrs, donor C1700979; RKO KO hCLDN3 L14) [7]: 29%
- % Live Cells at Assay Endpoint (96 hrs, donor C1700980; RKO KO hCLDN3 L14) [7]: 57.3%
- % Live Cells at Assay Endpoint (120 hrs, donor 0372470) [7]: 20.3%
- IFNγ secretion fold change, anti-claudin-3 CAR-T cells vs anti-CD19 CAR-T cells [7]: 2500 fold
- IFNγ secretion fold change, anti-claudin-3 CAR-T cells vs untransduced T cells [7]: 1350 fold
- % Live Cells at Assay Endpoint (40 hrs, donor 92024) [8]: 96.7%
- % Live Cells at Assay Endpoint (70 hrs, donor D5) [8]: 96.3%
- % Live Cells at Assay Endpoint (96 hrs, donor C1700979) [8]: 92.7%
- % Live Cells at Assay Endpoint (96 hrs, donor C1700980) [8]: 101%
- IFNγ secretion fold change, anti-claudin-3 CAR-T cells vs anti-CD19 CAR-T cells [8]: 14.3 fold
- IFNγ secretion fold change, anti-claudin-3 CAR-T cells vs untransduced T cells [8]: 11.3 fold
- IFNγ as % of IFNγ in CLDN3 WT (24 h co-culture, normalised to untransduced T cells) [9]: 72.8%
- IFNγ as % of IFNγ in CLDN3 WT (24 h co-culture, normalised to untransduced T cells) [10]: 95.5%
- IFNγ as % of IFNγ in CLDN3 WT (24 h co-culture, normalised to untransduced T cells) [11]: 91.3%
- IFNγ as % of IFNγ in CLDN3 WT (24 h co-culture, normalised to untransduced T cells) [12]: 95.2%
- IFNγ as % of IFNγ in CLDN3 WT (24 h co-culture, normalised to untransduced T cells) [13]: 61.6%
- % Live Cells at Assay Endpoint (40 hrs, donor 92024) [14]: 96.3%
- % Live Cells at Assay Endpoint (96 hrs, donor C1700979) [14]: 96%
- % Live Cells at Assay Endpoint (96 hrs, donor C1700980) [14]: 100%
- IFNγ secretion fold change, anti-claudin-3 CAR-T cells vs anti-CD19 CAR-T cells [14]: 10.9 fold
- IFNγ secretion fold change, anti-claudin-3 CAR-T cells vs untransduced T cells [14]: 2.59 fold
- IFNγ as % of IFNγ in CLDN3 WT (24 h co-culture, normalised to untransduced T cells) [15]: 0.11%
- IFNγ as % of IFNγ in CLDN3 WT (24 h co-culture, normalised to untransduced T cells) [16]: 107%
- IFNγ as % of IFNγ in CLDN3 WT (24 h co-culture, normalised to untransduced T cells) [17]: 86.3%
- % Live Cells at Assay Endpoint (40 hrs, donor 92024) [18]: 89%
- % Live Cells at Assay Endpoint (70 hrs, donor D5) [18]: 97.7%
- % Live Cells at Assay Endpoint (90 hrs, donor 0372470) [18]: 94.5%
- % Live Cells at Assay Endpoint (96 hrs, donor C1700979) [18]: 71%
- % Live Cells at Assay Endpoint (96 hrs, donor C1700980) [18]: 86%
- % Live Cells at Assay Endpoint (120 hrs, donor 0372470) [18]: 81.7%
- IFNγ secretion fold change, anti-claudin-3 CAR-T cells vs anti-CD19 CAR-T cells [18]: 439 fold
- IFNγ secretion fold change, anti-claudin-3 CAR-T cells vs untransduced T cells [18]: 521 fold
- IFNγ as % of IFNγ in CLDN3 WT (24 h co-culture, normalised to untransduced T cells) [19]: 3.56%
